The target of the experiment is MyoVa^GTD (mouse) (UniProt Q99104). Kind of experiment: ITC. In general terms: ITC needs no label: the signal is the heat of the interaction.

Consider Spir2^GTBM (domain or fragment), for which the fold higher affinity than MICAL1^GTBM worked out at 25 fold.

These data come from article PMC7673715.
